The record followed here is patent publication US20160068605A1 (Janssen / Centocor, published 2016).

The test concerns the target T1, Recombinant human CD123 SP2 ECD protein (human, UniProt P26951 101-303).
T1 construct: also called rhCD123 SP2; CD123 ECD SP2
T1 sequence: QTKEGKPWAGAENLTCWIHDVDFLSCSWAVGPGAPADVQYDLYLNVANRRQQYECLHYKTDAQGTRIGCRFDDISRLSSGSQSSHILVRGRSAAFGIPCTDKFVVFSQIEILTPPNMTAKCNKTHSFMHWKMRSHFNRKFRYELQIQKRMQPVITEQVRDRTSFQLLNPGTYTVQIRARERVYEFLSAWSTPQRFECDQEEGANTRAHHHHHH
The test is described as follows: SPR ProteOn, captured mAb.

The term Kd denotes the concentration at which binding is half-saturated. The koff is the rate constant with which the complex falls apart. By kon is commonly meant the rate constant with which the complex forms.

B1: I3RB18 (antibody, IgG1, V domains shown)
VH: EVQLVQSGAEVKKPGESLKISCKGSGYSFTSYWISWVRQMPGKGLEWMGIIDPSDSDTRYSPSFQGQVTISADKSISTAYLQWSSLKASDTAMYYCARGDGSTDLDYWGQGTLVTVSS
VL: EIVLTQSPGTLSLSPGERATLSCRASQSVSSSYLAWYQQKPGQAPRLLIYGASSRATGIPDRFSGSGSGTDFTLTISRLEPEDFAVYYCQQDYGFPWTFGQGTKVEIK
notes: IgG1; also called 13RB18; mAb I3RB18
Take B1: the Kd turned out to be 0.363 nM, the koff stood at 0.000978 s⁻¹ and the kon was determined as 2.69e+06 M⁻¹ s⁻¹.
